Measured values: US20250339529A1 (MINK THERAPEUTICS, published 2025)

T1: BCMA antigen (UniProt Q02223 1-54, limits assumed)
T1 construct: also called wild type BCMA
T1 sequence (looked up): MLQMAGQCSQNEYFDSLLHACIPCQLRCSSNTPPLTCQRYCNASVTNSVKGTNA


Biological target: T1, BCMA antigen
Assay: SPR (Biacore T200), IgG captured on a protein A chip, huBCMA as analyte, 1:1 Binding model, 25 C
Method: (§1) To test the affinity of BCMA F6G variants their binding domains were expressed as IgGs and captured to a protein A chip. BCMA antigen was flowed over the chip at […] concentrations. Experiment was run on Biacore T200. […] The CARs were expressed as IgGs and captured to a protein A chip. BCMA antigen was flowed over the chip at […]. concentrations. Experiment was run on Biacore T200.

| Molecule | Kd | koff | kon |
| --- | --- | --- | --- |
| Bb2121 huIgG1 (antibody) | 1.67 nM | 0.00484 s⁻¹ | 2.89e+06 M⁻¹ s⁻¹ |
| F6Gvar2 (antibody, V domains shown) VH: QVQLVQSGAEVKKPGASVKVSCKASGYTFTGYYMQWVRQAPGQGLEWMGWMNPISGNTGYAQKFQGRVTMTRNTSISTAYMELSSLRSEDTAVYYCARAQWEPLDYWGQGTLVTVSS VL: SYELTQPPSVSVSPGQTARITCSGDALPKKYTYWYQQKSGQAPVLVIYYDTKRPSGIPERFSGSSSGTMATLTISGAQVEDEADYYCLSTHPAGQESVFGGGTKLTVLG | 2.35 nM | 0.000325 s⁻¹ | 138000 M⁻¹ s⁻¹ |
| F6Gvar3 (antibody, V domains shown) VH: QVQLVQSGAEVKKPGASVKVSCKASGYTFTGYYMQWVRQAPGQGLEWMGWMNPISGNTGYAQKFQGRVTMTRNTSISTAYMELSSLRSEDTAVYYCARAQWEPLDYWGQGTLVTVSS VL: SYELTQPPSVSVSPGQTARITCSGDALPKKYTYWYQQKSGQAPVLVIYYDTKRPSGIPERFSGSSSGTMATLTISGAQVEDEADYYCLSTNPTGHESVFGGGTKLTVLG | 2.12 nM | 0.000317 s⁻¹ | 150000 M⁻¹ s⁻¹ |
| F6G huIgG1 (antibody, V domains shown, also called germline F6G expressed as human IgG1) VH: QVQLVQSGAEVKKPGASVKVSCKASGYTFTGYYMHWVRQAPGQGLEWMGWMNPNSGNTGYAQKFQGRVTMTRNTSISTAYMELSSLRSEDTAVYYCARAQWEPLDYWGQGTLVTVSS VL: SYELTQPPSVSVSPGQTARITCSGDALPKKYTYWYQQKSGQAPVLVIYEDTKRPSGIPERFSGSSSGTMATLTISGAQVEDEADYYCLSTDPTGQESVFGGGTKLTVLG | 97.8 nM | 0.0197 s⁻¹ | 201000 M⁻¹ s⁻¹ |

Biological target: T1, BCMA antigen
Assay: flow cytometry, iNKT cells transiently transfected with BCMA CAR-RFP mRNA and stained with soluble BCMA-APC, two donors
Method: INKT cells from two donors were transiently transfected with F6G variants and anti-BCMA-CAR iNKT cell-mediated killing of tumor cells were tested. Flow cytometry analysis of RFP expression to show CAR expression and antigen binding with BCMA-APC in BCMA-CAR iNKTs (FIGS. 13A-13C). The level of BCMA expression on each tumor cell line was assessed by flow cytometry where left peak show isotype staining and right peak show BCMA expression (FIG. 13D). iNKT cells expressing anti-BCMA CAR (as shown in FIG. 13A) were co-cultured with tumor cell lines endogenously expressing BCMA or K562 for 24 hrs at 3 different effector-to-target ratios. After 24 hr co-coculture, cytotoxicity assay was analyzed by flow cytometry for percentage of dead target cells (FIG. 13E), percentage of CD69/CD25 co-expressing iNKT cells (FIG. 13F) and percentage of 4-1BB expressing iNKT cells (FIG. 13G).

| Molecule | binding result |
| --- | --- |
| F6G-Var1 (other, also called F6G-Var1 CAR on iNKT cells (transient, CAR-RFP mRNA)) CAR polypeptide: QVQLVQSGAEVKKPGASVKVSCKASGYTFTGYYMHWVRQAPGQGLEWMGWMNPNSGNTGYAQKFQGRVTMTRNTSISTAYMELSSLRSEDTAVYYCARAQWEPLDYWGQGTLVTVSSGGGGSGGGGSGGGASSYELTQPPSVSVSPGQTARITCSGDALPKKYTYWYQQKSGQAPVLVIYYDTKRPSGIPERFSGSSSGTMATLTISGAQVEDEADYYCLSTDPTGQESVFGGGTKLTVLGQPAAATTTPAPRPPTPAPTIASQPLSLRPEACRPAAGGAVHTRGLDFACDIYIWAPLAGTCGVLLLSLVITLYCKRGRKKLLYIFKQPFMRPVQTTQEEDGCSCRFPEEEEGGCELRVKFSRSADAPAYQQGQNQLYNELNLGRREEYDVLDKRRGRDPEMGGKPRRKNPQEGLYNELQKDKMAEAYSEIGMKGERRRGKGHDGLYQGLSTATKDTYDALHMQALPPR | binds |
| F6G-Var6 (other, also called F6G-Var6 CAR on iNKT cells (transient, CAR-RFP mRNA)) CAR polypeptide: QVQLVQSGAEVKKPGASVKVSCKASGYTFTEYYMKWVRQAPGQGLEWMGWMNPNTGKTGYAQKFQGRVTMTRNTSISTAYMELSSLRSEDTAVYYCARAQWEPLDYWGQGTLVTVSSGGGGSGGGGSGGGASSYELTQPPSVSVSPGQTARITCSGDALPKKYTYWYQQKSGQAPVLVIYYDTKRPSGIPERFSGSSSGTMATLTISGAQVEDEADYYCLSTDPTGQESVFGGGTKLTVLGQPAAATTTPAPRPPTPAPTIASQPLSLRPEACRPAAGGAVHTRGLDFACDIYIWAPLAGTCGVLLLSLVITLYCKRGRKKLLYIFKQPFMRPVQTTQEEDGCSCRFPEEEEGGCELRVKFSRSADAPAYQQGQNQLYNELNLGRREEYDVLDKRRGRDPEMGGKPRRKNPQEGLYNELQKDKMAEAYSEIGMKGERRRGKGHDGLYQGLSTATKDTYDALHMQALPPR | binds |
| F6G-Var5 (other, also called F6G-Var5 CAR on iNKT cells (transient, CAR-RFP mRNA)) CAR polypeptide: QVQLVQSGAEVKKPGASVKVSCKASGYTFTGYYMHWVRQAPGQGLEWMGWMNPNSGNTGYAQKFQGRVTMTRNTSISTAYMELSSLRSEDTAVYYCARAQWEPLDYWGQGTLVTVSSGGGGSGGGGSGGGASSYELTQPPSVSVSPGQTARITCSGDALPKKYTYWYQQKSGQAPVLVIYYDTKRPSGIPERFSGSSSGTMATLTISGAQVEDEADYYCLSTNPTGHESVFGGGTKLTVLGQPAAATTTPAPRPPTPAPTIASQPLSLRPEACRPAAGGAVHTRGLDFACDIYIWAPLAGTCGVLLLSLVITLYCKRGRKKLLYIFKQPFMRPVQTTQEEDGCSCRFPEEEEGGCELRVKFSRSADAPAYQQGQNQLYNELNLGRREEYDVLDKRRGRDPEMGGKPRRKNPQEGLYNELQKDKMAEAYSEIGMKGERRRGKGHDGLYQGLSTATKDTYDALHMQALPPR | binds |
| F6G-Var3 (other, also called F6G-Var3 CAR on iNKT cells (transient, CAR-RFP mRNA)) CAR polypeptide: QVQLVQSGAEVKKPGASVKVSCKASGYTFTGYYMQWVRQAPGQGLEWMGWMNPISGNTGYAQKFQGRVTMTRNTSISTAYMELSSLRSEDTAVYYCARAQWEPLDYWGQGTLVTVSSGGGGSGGGGSGGGASSYELTQPPSVSVSPGQTARITCSGDALPKKYTYWYQQKSGQAPVLVIYYDTKRPSGIPERFSGSSSGTMATLTISGAQVEDEADYYCLSTNPTGHESVFGGGTKLTVLGQPAAATTTPAPRPPTPAPTIASQPLSLRPEACRPAAGGAVHTRGLDFACDIYIWAPLAGTCGVLLLSLVITLYCKRGRKKLLYIFKQPFMRPVQTTQEEDGCSCRFPEEEEGGCELRVKFSRSADAPAYQQGQNQLYNELNLGRREEYDVLDKRRGRDPEMGGKPRRKNPQEGLYNELQKDKMAEAYSEIGMKGERRRGKGHDGLYQGLSTATKDTYDALHMQALPPR | binds |
| F6G (other, also called F6G CAR on iNKT cells (transient, CAR-RFP mRNA)) CAR polypeptide: QVQLVQSGAEVKKPGASVKVSCKASGYTFTGYYMHWVRQAPGQGLEWMGWMNPNSGNTGYAQKFQGRVTMTRNTSISTAYMELSSLRSEDTAVYYCARAQWEPLDYWGQGTLVTVSSGGGGSGGGGSGGGASSYELTQPPSVSVSPGQTARITCSGDALPKKYTYWYQQKSGQAPVLVIYEDTKRPSGIPERFSGSSSGTMATLTISGAQVEDEADYYCLSTDPTGQESVFGGGTKLTVLGQPAAATTTPAPRPPTPAPTIASQPLSLRPEACRPAAGGAVHTRGLDFACDIYIWAPLAGTCGVLLLSLVITLYCKRGRKKLLYIFKQPFMRPVQTTQEEDGCSCRFPEEEEGGCELRVKFSRSADAPAYQQGQNQLYNELNLGRREEYDVLDKRRGRDPEMGGKPRRKNPQEGLYNELQKDKMAEAYSEIGMKGERRRGKGHDGLYQGLSTATKDTYDALHMQALPPR | binds |
| F6G-Var4 (other, also called F6G-Var4 CAR on iNKT cells (transient, CAR-RFP mRNA)) CAR polypeptide: QVQLVQSGAEVKKPGASVKVSCKASGYTFTGYYMHWVRQAPGQGLEWMGWMNPNSGNTGYAQKFQGRVTMTRNTSISTAYMELSSLRSEDTAVYYCARAQWEPLDYWGQGTLVTVSSGGGGSGGGGSGGGASSYELTQPPSVSVSPGQTARITCSGDALPKKYTYWYQQKSGQAPVLVIYYDTKRPSGIPERFSGSSSGTMATLTISGAQVEDEADYYCLSTHPAGQESVFGGGTKLTVLGQPAAATTTPAPRPPTPAPTIASQPLSLRPEACRPAAGGAVHTRGLDFACDIYIWAPLAGTCGVLLLSLVITLYCKRGRKKLLYIFKQPFMRPVQTTQEEDGCSCRFPEEEEGGCELRVKFSRSADAPAYQQGQNQLYNELNLGRREEYDVLDKRRGRDPEMGGKPRRKNPQEGLYNELQKDKMAEAYSEIGMKGERRRGKGHDGLYQGLSTATKDTYDALHMQALPPR | binds |

Biological target: T1, BCMA antigen
Assay: SPR (Biacore T200), IgG captured on a protein A chip, huBCMA as analyte, 1:1 Binding model, 25 C; same panel as in FIG. 11
Method: as §1

| Molecule | Kd | koff | kon |
| --- | --- | --- | --- |
| F6Gvar2 (antibody, V domains shown) VH: QVQLVQSGAEVKKPGASVKVSCKASGYTFTGYYMQWVRQAPGQGLEWMGWMNPISGNTGYAQKFQGRVTMTRNTSISTAYMELSSLRSEDTAVYYCARAQWEPLDYWGQGTLVTVSS VL: SYELTQPPSVSVSPGQTARITCSGDALPKKYTYWYQQKSGQAPVLVIYYDTKRPSGIPERFSGSSSGTMATLTISGAQVEDEADYYCLSTHPAGQESVFGGGTKLTVLG | 2.35 nM | 0.000325 s⁻¹ | 138000 M⁻¹ s⁻¹ |
